Assay [1] concerns the target human growth hormone receptor on IM-9 cells (human) (UniProt P10912). Nature of the assay: cell-based or functional assay.
For assay [2], the target named is T1, full length rat GHR (L43R) on BAF3 cells (rat) (UniProt P16310).
T1 sequence (looked up): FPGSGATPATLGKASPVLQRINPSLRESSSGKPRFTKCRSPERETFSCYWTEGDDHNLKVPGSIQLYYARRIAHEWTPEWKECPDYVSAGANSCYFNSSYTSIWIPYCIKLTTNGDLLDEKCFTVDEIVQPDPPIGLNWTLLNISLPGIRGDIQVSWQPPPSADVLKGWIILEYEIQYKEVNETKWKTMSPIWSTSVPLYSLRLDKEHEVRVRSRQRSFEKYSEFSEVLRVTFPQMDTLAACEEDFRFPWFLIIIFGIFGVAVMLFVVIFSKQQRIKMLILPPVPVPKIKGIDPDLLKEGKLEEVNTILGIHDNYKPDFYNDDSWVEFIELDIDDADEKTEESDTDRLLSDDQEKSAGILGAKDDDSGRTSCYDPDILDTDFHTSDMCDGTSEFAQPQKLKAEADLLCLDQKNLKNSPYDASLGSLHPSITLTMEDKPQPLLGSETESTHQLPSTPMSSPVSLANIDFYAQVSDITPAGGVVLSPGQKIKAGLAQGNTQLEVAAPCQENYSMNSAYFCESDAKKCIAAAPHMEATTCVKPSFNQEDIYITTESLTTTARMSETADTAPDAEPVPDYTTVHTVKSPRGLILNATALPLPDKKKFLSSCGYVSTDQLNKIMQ
Nature of the assay: cell-based or functional assay.

Chain of UniProt P10912 (P10912 19-638): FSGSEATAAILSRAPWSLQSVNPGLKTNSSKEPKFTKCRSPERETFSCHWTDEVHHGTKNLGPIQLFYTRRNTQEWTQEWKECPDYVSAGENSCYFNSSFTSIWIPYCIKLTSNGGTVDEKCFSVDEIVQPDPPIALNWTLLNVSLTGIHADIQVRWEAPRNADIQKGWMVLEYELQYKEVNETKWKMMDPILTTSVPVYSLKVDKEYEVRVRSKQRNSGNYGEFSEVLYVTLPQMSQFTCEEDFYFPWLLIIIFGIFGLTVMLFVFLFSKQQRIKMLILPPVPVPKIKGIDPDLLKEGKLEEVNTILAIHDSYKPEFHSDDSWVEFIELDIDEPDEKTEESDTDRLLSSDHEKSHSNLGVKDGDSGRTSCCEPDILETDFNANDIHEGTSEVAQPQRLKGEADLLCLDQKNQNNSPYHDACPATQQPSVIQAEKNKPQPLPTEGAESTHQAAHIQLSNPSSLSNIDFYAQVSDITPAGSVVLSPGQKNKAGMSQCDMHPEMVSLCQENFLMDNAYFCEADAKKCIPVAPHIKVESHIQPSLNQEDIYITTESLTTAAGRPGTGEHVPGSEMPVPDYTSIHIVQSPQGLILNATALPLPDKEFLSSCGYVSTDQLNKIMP

Regarding “hGH G131pAF linked to 30 kDa PEG (from UniProt P01241 27-217) (ligand)”, the pSTAT5 EC50 (nM), IM-9; WHO hGH expressed as unity in assay [1] is 23.8 nM. In assay [2], this substance came in with a Proliferation EC50 (nM), BrdU, rat GHR (L43R) BAF3 cells; WHO hGH expressed as unity of 4.6 nM.
The matching figures for “hGH K145pAF linked to 30 kDa PEG (from UniProt P01241 27-217) (ligand)”: 20.6 nM and 5.3 nM.
In turn, “hGH R134pAF linked to 20 kDa PEG (from UniProt P01241 27-217) (ligand)” had a pSTAT5 EC50 (nM), IM-9; WHO hGH expressed as unity in assay [1] of 5.3 nM.
Regarding “hGH Y35pAF linked to 40 kDa PEG (from UniProt P01241 27-217) (ligand)”, in assay [1], the pSTAT5 EC50 (nM), IM-9; WHO hGH expressed as unity is 53.3 nM. In assay [2], this substance had a Proliferation EC50 (nM), BrdU, rat GHR (L43R) BAF3 cells; WHO hGH expressed as unity of 24 nM.
The matching figures for “hGH Y143pAF linked to 30 kDa PEG (from UniProt P01241 27-217) (ligand)”: 12.3 nM and 6.6 nM.
